This assay has as its target T1, 재조합 인슐린 유사 성장인자-1 수용체 (IGF-1R, R&D system, 391-GR), extracellular domain Met1-Asn932 (human, UniProt P08069 31-932).
T1 construct: range 1-932; Bought recombinant protein; also called 재조합 IGF-1R; hIGF-1R
Kind of assay: SPR (BiaCore T200), MKJP2 captured on anti-human IgG Fc CM5 chip, IGF-1R injected at 0.78-12.5 nM. (In general: Surface plasmon resonance follows binding to a sensor surface in real time, without labels.)

T1 sequence (P08069 31-932 limits assumed): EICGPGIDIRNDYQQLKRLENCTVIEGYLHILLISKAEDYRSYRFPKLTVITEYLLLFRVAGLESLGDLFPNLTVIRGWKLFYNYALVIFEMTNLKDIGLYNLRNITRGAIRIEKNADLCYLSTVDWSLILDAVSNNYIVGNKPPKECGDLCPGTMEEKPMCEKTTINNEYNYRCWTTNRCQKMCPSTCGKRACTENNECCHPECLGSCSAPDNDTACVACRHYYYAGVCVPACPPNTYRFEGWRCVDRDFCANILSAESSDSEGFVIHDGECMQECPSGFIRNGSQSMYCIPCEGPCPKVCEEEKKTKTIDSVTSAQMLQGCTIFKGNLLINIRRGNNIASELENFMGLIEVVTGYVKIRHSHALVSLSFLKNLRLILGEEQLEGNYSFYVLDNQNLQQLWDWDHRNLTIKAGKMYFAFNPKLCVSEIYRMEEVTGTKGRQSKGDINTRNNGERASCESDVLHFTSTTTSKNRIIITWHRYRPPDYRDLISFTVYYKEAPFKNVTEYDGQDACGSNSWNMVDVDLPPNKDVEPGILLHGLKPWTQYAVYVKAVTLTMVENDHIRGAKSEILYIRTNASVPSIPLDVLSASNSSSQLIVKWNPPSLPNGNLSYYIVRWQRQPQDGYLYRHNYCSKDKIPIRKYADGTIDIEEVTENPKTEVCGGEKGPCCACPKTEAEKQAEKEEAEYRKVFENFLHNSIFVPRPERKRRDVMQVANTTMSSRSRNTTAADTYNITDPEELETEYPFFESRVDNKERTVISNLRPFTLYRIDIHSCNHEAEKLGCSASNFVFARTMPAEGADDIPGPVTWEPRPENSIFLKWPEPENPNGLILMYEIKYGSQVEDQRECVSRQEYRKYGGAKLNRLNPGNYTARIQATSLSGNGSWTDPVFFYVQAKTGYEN

B1: 인간 단일클론항체 MKJP2 (전체 IgG) (antibody, V domains shown)
VH: EVQLLESGGGLAQPGGSLRLSCAASGFTFSGYAMSWVRQAPGKGLEWVSAISSDGGSTYYADSVKGRFTISRDNSKNTLYLQMNSLRAEDTAVYYCARDPWFSRWTAFDYWGQGTLVTVSS
VL: QSVLTQPPSASGTPGQRVTISCSGSSSNIGNNAVNWYQQLPGTAPKLLIYSNSKRPSGVPDRFSGSKSGTSASLAISGLRSEDEADYYCGTWDYSLSGYVFGGGTKLTVLG
notes: Variable regions were cloned into the vectors E-A12H-ID (heavy) and pEA12L-ID (light); also called MKJP2 항체; 항 IGF-1R 항체 MKJP2
In turn, B1 gave a Kd of 173 pM.

For orientation: Kd means the concentration at which binding is half-saturated. Lower therefore signals tighter binding.
